Publication PMC8556256
Blank lines part the entries; values can stand above or below the molecule they belong to.

Target: Flag-tagged PITX2 R115L (mouse)
Experiment: co-IP; 293T cells co-transfected with PITX2-Flag (WT or R115L) and NRF2-HA or YAP1-HA; lysis in 50 mM Tris-HCl pH 7.5, 150 mM NaCl, 1% Nonidet P-40, 0.5% sodium deoxycholate; Flag immunoprecipitation at 4 °C overnight, six washes, blot with anti-HA; relative binding capacity = normalized IP-HA intensity / normalized IP-Flag intensity (ImageJ)

reduction of relative binding capacity against WT PITX2: 89.1%
Molecule: HA-tagged YAP1 (from UniProt P46938 1-488) (natural protein)

reduction of relative binding capacity against WT PITX2: 53.8%
B1: HA-tagged NRF2 (natural protein)
chain: MMDLELPPPGLQSQQDMDLIDILWRQDIDLGVSREVFDFSQRQKDYELEKQKKLEKERQEQLQKEQEKAFFAQFQLDEETGEFLPIQPAQHIQTDTSGSASYSQVAHIPKQDALYFEDCMQLLAETFPFVDDHESLALDIPSHAESSVFTAPHQAQSLNSSLEAAMTDLSSIEQDMEQVWQELFSIPELQCLNTENKQLADTTAVPSPEATLTEMDSNYHFYSSISSLEKEVGNCGPHFLHGFEDSFSSILSTDDASQLTSLDSNPTLNTDFGDEFYSAFIAEPSDGGSMPSSAAISQSLSELLDGTIEGCDLSLCKAFNPKHAEGTMEFNDSDSGISLNTSPSRASPEHSVESSIYGDPPPGFSDSEMEELDSAPGSVKQNGPKAQPAHSPGDTVQPLSPAQGHSAPMRESQCENTTKKEVPVSPGHQKAPFTKDKHSSRLEAHLTRDELRAKALHIPFPVEKIINLPVDDFNEMMSKEQFNEAQLALIRDIRRRGKNKVAAQNCRKRKLENIVELEQDLGHLKDEREKLLREKGENDRNLHLLKRRLSTLYLEVFSMLRDEDGKPYSPSEYSLQQTRDGNVFLVPKSKKPDTKKN
